Biological target: RaTG13 S-protein receptor-binding domain fused to the Fc domain of human IgG1 (bat coronavirus RaTG13)
Experiment: SPR

soluble monomeric human ACE2-NN (enzymatically inactive human ACE2 lacking its active-site histidines) (domain or fragment)
Kd: > 35 µM

Reference: article PMC7337384
